Positions count from the first letter of the chain named. In names and notes the source's numbering stands.

Substrate in series [1]: N[C@@H](CO)C(=O)O
The series can be described thus: purified protein. Particulars: 100 μM palmitoyl-CoA, 25 μM PLP, pH 7.5, 37 °C.

Substrate in series [2]: CCCCCCCCCCCCCCCC(=O)SCCNC(=O)CCNC(=O)[C@H](O)C(C)(C)COP(=O)(O)OP(=O)(O)OC[C@H]1O[C@@H](n2cnc3c(N)ncnc32)[C@H](O)[C@@H]1OP(=O)(O)O
The series can be described thus: DTNB CoA-release assay; allosteric sigmoidal fit. The format is biochemical, Homo sapiens. Particulars: 10 mM L-serine, 25 μM PLP, pH 7.5, 37 °C. An excerpt:
DTNB CoA-release assay; allosteric sigmoidal fit on SPT-ORMDL3 complex | increased Khalf for palmitoyl-CoA in the ORMDL3-containing complex (Fig. 1e)

Series [3] deals with the molecule itself. The series can be described thus: cryo-EM structure; single-particle cryo-EM of co-expressed and co-purified SPT-ORMDL3 complexes at ~18 mg/ml in 25 mM HEPES pH 7.5, 150 mM NaCl, 0.01% GDN; apo, or WT preincubated with 1 mM C6-ceramide on ice for 1 hr.
In series [4] the target is T1, serine palmitoyltransferase (SPT) complex (SPTLC1, SPTLC2, SPTssa) (human, UniProt O15269 1-473; O15270 1-562; Q969W0 1-71).
T1 construct: SPTLC1, human, codon-optimized full-length cDNA; SPTLC2, human, codon-optimized full-length cDNA; SPTssa, human, codon-optimized full-length cDNA; Also purified alone, without ORMDLs; also called WT SPT complex; source: HEK293F, transiently co-transfected, purified (anti-Flag resin, SEC, GDN); copies: + +
T1 sequence (looked up) 1: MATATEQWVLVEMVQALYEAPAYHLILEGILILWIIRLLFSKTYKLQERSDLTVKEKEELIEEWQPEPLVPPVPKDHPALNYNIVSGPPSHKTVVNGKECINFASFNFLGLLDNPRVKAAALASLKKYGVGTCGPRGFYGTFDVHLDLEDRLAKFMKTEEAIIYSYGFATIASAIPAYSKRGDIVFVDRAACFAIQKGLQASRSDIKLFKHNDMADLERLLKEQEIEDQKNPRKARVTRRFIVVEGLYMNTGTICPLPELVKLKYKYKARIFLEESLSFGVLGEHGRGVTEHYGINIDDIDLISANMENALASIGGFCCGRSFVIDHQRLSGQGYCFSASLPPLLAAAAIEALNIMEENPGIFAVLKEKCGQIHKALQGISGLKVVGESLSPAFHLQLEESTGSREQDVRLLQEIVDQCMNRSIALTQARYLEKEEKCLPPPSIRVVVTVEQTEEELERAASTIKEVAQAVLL
T1 sequence (looked up) 2: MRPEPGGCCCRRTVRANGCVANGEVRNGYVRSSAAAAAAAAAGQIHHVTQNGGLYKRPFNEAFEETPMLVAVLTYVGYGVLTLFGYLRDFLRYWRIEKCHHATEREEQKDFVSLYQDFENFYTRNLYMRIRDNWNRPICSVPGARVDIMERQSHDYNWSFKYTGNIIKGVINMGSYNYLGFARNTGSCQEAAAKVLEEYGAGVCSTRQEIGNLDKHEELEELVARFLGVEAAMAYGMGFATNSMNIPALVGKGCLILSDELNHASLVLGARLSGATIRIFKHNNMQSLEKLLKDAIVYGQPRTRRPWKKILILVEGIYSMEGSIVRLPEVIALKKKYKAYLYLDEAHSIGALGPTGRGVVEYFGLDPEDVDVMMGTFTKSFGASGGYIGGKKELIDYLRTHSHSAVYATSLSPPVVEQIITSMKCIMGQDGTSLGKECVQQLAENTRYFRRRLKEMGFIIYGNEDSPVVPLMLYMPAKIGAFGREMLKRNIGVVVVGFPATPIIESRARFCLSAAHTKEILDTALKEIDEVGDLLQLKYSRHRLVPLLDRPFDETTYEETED
T1 sequence (looked up) 3: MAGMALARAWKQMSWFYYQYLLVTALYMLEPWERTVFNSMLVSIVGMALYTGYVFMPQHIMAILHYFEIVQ
The description is as above. Particulars: both partners purified.

For series [5], the target named is T2, SPTLC1 (human, UniProt O15269 1-473).
T2 construct: serine palmitoyltransferase subunit SPTLC1, human, codon-optimized full-length cDNA; source: HEK293F, transiently co-transfected with the other subunits, purified as a complex (anti-Flag resin, SEC, GDN)
T2 sequence (looked up): T1 sequence (looked up) 1
The series is described as above. Particulars: both partners purified.

For series [6], the target named is T3, SPTLC2 (human, UniProt O15270 1-562).
T3 construct: serine palmitoyltransferase subunit SPTLC2, human, codon-optimized full-length cDNA; source: HEK293F, transiently co-transfected with the other subunits, purified as a complex (anti-Flag resin, SEC, GDN)
T3 sequence (looked up): T1 sequence (looked up) 2
The series is described as above. Particulars: both partners purified.

Substrate in series [7]: CCCCCCCCCCCCCCCC(=O)SCCNC(=O)CCNC(=O)[C@H](O)C(C)(C)COP(=O)(O)OP(=O)(O)OC[C@H]1O[C@@H](n2cnc3c(N)ncnc32)[C@H](O)[C@@H]1OP(=O)(O)O
The experiment in a line: DTNB CoA-release assay; allosteric sigmoidal fit. The format is biochemical, Homo sapiens. Particulars: 10 mM L-serine, 25 μM PLP, pH 7.5, 37 °C. An excerpt:
DTNB CoA-release assay; allosteric sigmoidal fit on SPT-ORMDL3 complex | Khalf value of this variant toward palmitoyl-CoA was nearly two times as high
This is another data set of the same source.

Substrate in series [8]: CCCCCCCCCCCCCCCC(=O)SCCNC(=O)CCNC(=O)[C@H](O)C(C)(C)COP(=O)(O)OP(=O)(O)OC[C@H]1O[C@@H](n2cnc3c(N)ncnc32)[C@H](O)[C@@H]1OP(=O)(O)O
The experiment in a line: DTNB CoA-release assay; allosteric sigmoidal fit. Particulars: 10 mM L-serine, 25 μM PLP, pH 7.5, 37 °C. Format: biochemical, Homo sapiens. This is another data set of the same source.

Substrate in series [9]: CCCCCCCCCCCCCCCC(=O)SCCNC(=O)CCNC(=O)[C@H](O)C(C)(C)COP(=O)(O)OP(=O)(O)OC[C@H]1O[C@@H](n2cnc3c(N)ncnc32)[C@H](O)[C@@H]1OP(=O)(O)O
The experiment in a line: DTNB CoA-release assay; allosteric sigmoidal fit. Format: biochemical, Homo sapiens. Particulars: 10 mM L-serine, 25 μM PLP, pH 7.5, 37 °C. An excerpt: DTNB CoA-release assay; allosteric sigmoidal fit on SPT complex | SPT activity versus palmitoyl-CoA concentration for SPT and SPT-ORMDL3 complex
This is another data set of the same source.

B1: SPT-ORMDL3 complex (Homo sapiens) (protein)
chain 1: MNVGTAHSEVNPNTRVMNSRGIWLSYVLAIGLLHIVLLSIPFVSVPVVWTLTNLIHNMGMYIFLHTVKGTPFETPDQGKARLLTHWEQMDYGVQFTASRKFLTITPIVLYFLTSFYTKYDQIHFVLNTVSLMSVLIPKLPQLHGVRIFGINKY
chain 2: T1 sequence (looked up) 2
chain 3: T1 sequence (looked up) 1
notes: full-length subunits (ORMDL3-FL) co-expressed in HEK293F; N-terminal Flag tag on a subunit; purified in GDN; dimer of heterotetrameric protomers; with Serine palmitoyltransferase small subunit A
In the case of B1, the Michaelis-Menten constant (Km) in series [1] came out at 1140 ± 70 µM. For the same molecule, the K0.5 in series [2] was 26.85 ± 2.18 µM.

B2: SPT-ORMDL3 (ORMDL3-ΔN2) complex (complex, human)
chain 1: T1 sequence (looked up) 1
chain 2: T1 sequence (looked up) 2
chain 3: T1 sequence (looked up) 3
chain 4: MVGTAHSEVNPNTRVMNSRGIWLSYVLAIGLLHIVLLSIPFVSVPVVWTLTNLIHNMGMYIFLHTVKGTPFETPDQGKARLLTHWEQMDYGVQFTASRKFLTITPIVLYFLTSFYTKYDQIHFVLNTVSLMSVLIPKLPQLHGVRIFGINKY
notes: SPTLC1, human, codon-optimized full-length cDNA; SPTLC2, human, codon-optimized full-length cDNA; SPTssa, human, codon-optimized full-length cDNA; ORMDL3, human, full-length cDNA with Asn2 deleted; One protomer; also called ORMDL3-ΔN2 variant; ORMDL3-ΔN2 protomer; source: HEK293F, transiently co-transfected, purified (anti-Flag resin, SEC, GDN); copies: + + +
B2: in series [3], the binding result is “binds”.

B3: ORMDL3 (full-length, wild type) (natural protein, human, UniProt Q8N138 1-153, looked up)
chain: B1 chain 1
notes: ORMDL3, human, codon-optimized full-length cDNA in pCAG (new ORMDL3-FL plasmid without the 14 extra nucleotides upstream of the ORF); cDNAs were cloned 'with an N-terminal Flag tag or without a tag'; also called ORMDL3-FL; WT ORMDL3; source: HEK293F, transiently co-transfected with the SPT subunits, purified as a complex (anti-Flag resin, SEC, GDN)
As to B3, the binding result in series [4], in series [5] and in series [6] was “binds” throughout.

B4: SPT-ORMDL3 (ORMDL3-N13A) complex (complex, human)
chain 1: T1 sequence (looked up) 1
chain 2: T1 sequence (looked up) 2
chain 3: T1 sequence (looked up) 3
chain 4: B1 chain 1 with N13A
notes: SPTLC1, human, codon-optimized full-length cDNA; SPTLC2, human, codon-optimized full-length cDNA; SPTssa, human, codon-optimized full-length cDNA; ORMDL3, human, full-length cDNA with N13A; One protomer; also called ORMDL3-N13A variant; ORMDL3-N13A protomer; source: HEK293F, transiently co-transfected, purified (anti-Flag resin, SEC, GDN); copies: + + +
Regarding B4, in [3], the binding result is “binds”.

B5: SPT-ORMDL3 complex (SPTLC1, SPTLC2, SPTssa, ORMDL3-FL) (complex, human)
chain 1: T1 sequence (looked up) 1
chain 2: T1 sequence (looked up) 2
chain 3: T1 sequence (looked up) 3
chain 4: B1 chain 1
notes: SPTLC1, human, codon-optimized full-length cDNA; SPTLC2, human, codon-optimized full-length cDNA; SPTssa, human, codon-optimized full-length cDNA; ORMDL3, human, codon-optimized full-length cDNA; One protomer; two protomers form the dimeric complex seen by cryo-EM; also called WT SPT-ORMDL3 complex; SPT-ORMDL3 protomer; source: HEK293F, transiently co-transfected, purified (anti-Flag resin, SEC, …)
As for B5, in series [3], the “stoichiometry N” value worked out at 2.

B6: SPT-ORMDL3 complex (Homo sapiens; Q8N138:N13A) (protein)
chain 1: B1 chain 1 with N13A
chain 2: T1 sequence (looked up) 2
chain 3: T1 sequence (looked up) 1
notes: as for B1
Take B6: the K0.5 in [7] came to 8.05 ± 1.20 µM.

B7: SPT-ORMDL3 (ORMDL3-ΔN17) (Homo sapiens) (protein)
chain 1: T1 sequence (looked up) 1
chain 2: T1 sequence (looked up) 2
notes: ORMDL3 lacking the N-terminal 16 residues (deletion 2-17, by analogy with the printed ΔN8 = 2-8); HEK293F; purified in GDN; with Serine palmitoyltransferase small subunit A; ORM1-like protein 3
With B7, in series [8], the K0.5 turned out to be 2.51 ± 0.33 µM.

B8: SPT complex (Homo sapiens) (protein)
chain 1: T1 sequence (looked up) 1
chain 2: T1 sequence (looked up) 2
notes: core enzyme without ORMDL; full-length subunits co-expressed in HEK293F; N-terminal Flag tag on a subunit; purified in GDN; with Serine palmitoyltransferase small subunit A
As to B8, the Michaelis-Menten constant (Km) in series [1] stood at 1580 ± 130 µM. Moreover, the K0.5 in series [9] came out at 4.47 ± 0.31 µM.

B9: ORMDL3-N13A (natural protein, human, UniProt Q8N138 1-153, looked up)
chain: B1 chain 1 with N13A
notes: ORMDL3, human, full-length cDNA with N13A; also called ORMDL3-N13A mutant; source: HEK293F, transiently co-transfected with the SPT subunits, purified as a complex (anti-Flag resin, SEC, GDN)
As for B9, in series [4], the binding result was “binds”.

B10: ORMDL3-ΔN2 (deletion of the Asn2 residue) (natural protein, human, UniProt Q8N138 1-153, looked up)
chain: B2 chain 4
notes: ORMDL3, human, full-length cDNA with Asn2 deleted; also called ORMDL3-ΔN2 mutant; source: HEK293F, transiently co-transfected with the SPT subunits, purified as a complex (anti-Flag resin, SEC, GDN)
For the molecule B10, in series [4], the binding result is reported as “binds”.

As a reminder, the Km is the substrate concentration at which the rate is half of its maximum. As usually defined, the stoichiometry N is a count of units in the complex or per binding partner.
